Test results from the supplement of paper PMC12783771.
± gives the standard deviation of the averaged measurements.

B1: library; numbered along this chain (parent)
chain: MNIQIGELAKRTACPVVTIRFYEQEGLLPPPGRSRGNFRLYGEEHVERLQFIRHCRSLDMPLSDVRTLLSYRKRPDQDCGEVNMLLDEHIRQVESRIGALLELKHHLVELREACSGARPAQSCGILQGLSDCVCDTRGTTAHPSD

Legend:
[1] = variants of: B1; assay: sfGFP reporter fluorescence (15 h) (µM FITC); higher = higher leak; conditions: library round: Round 1; ligand: none
How it was run: (§1)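 Linear PbrR templates were made by PCR, normalized to 5 nM with an Echo, and expressed in BL21 Star (DE3) PANOx-SP extract with the pPbrR-sfGFP reporter plasmid and 30 μg/mL GamS. Echo-assembled 1 μL reactions held 1 µM lead chloride, 30 µM zinc acetate or no metal and were incubated 15 hr at 30 °C. Endpoint sfGFP fluorescence was read on a Synergy Neo2 and expressed as µM FITC using standard curves. Up to three biological replicates were run.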

[2] = variants of: B1; assay: sfGFP reporter fluorescence (15 h) (µM FITC); higher = stronger transcriptional activation; conditions: library round: Round 1
How it was run: as §1

Variant	sfGFP reporter fluorescence [1]	sfGFP reporter fluorescence ([2]; ligand: 1 µM Pb)	sfGFP reporter fluorescence ([2]; ligand: 30 µM Zn)
D135A T136S	0.065 ± 0.00085	0.0751 ± 0.0085	0.424 ± 0.047
E94D K104V	0.0655 ± 0.0018	0.101 ± 0.047	0.352 ± 0.039
R96A K104V	0.068 ± 0.0015	0.0754 ± 0.0017	0.118 ± 0.0059
P61N D64K D135A	0.123 ± 0.0068	0.376 ± 0.011	1.33 ± 0.12
E43M G128I	0.077 ± 0.0028	0.206 ± 0.025	1.23 ± 0.086
D131Y D135A	0.0654 ± 0.0021	0.1 ± 0.0045	1.61 ± 0.27
V16S P61N	0.074 ± 0.00097	0.114 ± 0.021	0.612 ± 0.11
N83F P143K	0.0612 ± 0.00097	0.0718 ± 0.0033	0.0627 ± 0.00097
D131S C134V	0.072 ± 0.005	0.126 ± 0.0046	1.34 ± 0.045
P61L D64K	0.06157 ± 0.00037	0.0655 ± 0.0074	0.06389 ± 0.00056
M60L D64K K104T	0.5087 ± 0.0029	1.14 ± 0.23	2.22 ± 0.29
L107C G128I D135A P143K	0.787 ± 0.091	1.52 ± 0.079	2.47 ± 0.14
L107C E109Q G128I	0.54 ± 0.0092	1.09 ± 0.29	2.1 ± 0.28
M60L D64K D131C	0.344 ± 0.036	0.896 ± 0.29	2.2 ± 0.15
D131A D135A P143A	0.0687 ± 0.0035	0.0917 ± 0.0098	0.487 ± 0.043
N83W P143A	0.0616 ± 0.0013	0.0688 ± 0.0011	0.0621 ± 0.0015
E94C K104V	0.0704 ± 0.0013	0.072 ± 0.0039	0.184 ± 0.002
V108L C114L	0.05962 ± 0.00056	0.0571 ± 0.003	0.0589 ± 0.0018
N83T E109A P143Y	0.0646 ± 0.0022	0.0776 ± 0.0092	0.179 ± 0.017
N83T D135A P143A	0.0625 ± 0.002	0.0748 ± 0.0033	0.162 ± 0.0078
P61N R111L	0.0644 ± 0.0014	0.0861 ± 0.0066	0.265 ± 0.025
S115G D131C	0.0572 ± 0.0013	0.0619 ± 0.0016	0.0992 ± 0.0037

Variant	sfGFP reporter fluorescence [1]	sfGFP reporter fluorescence ([2]; ligand: 1 µM Pb)	sfGFP reporter fluorescence ([2]; ligand: 30 µM Zn)
K104R D135A	0.0652 ± 0.0026	0.0866 ± 0.004	0.368 ± 0.043
H105A I125A	0.0647 ± 0.0012	0.0639 ± 0.0042	0.0656 ± 0.0013
P61A L107C G128M	1.26 ± 0.063	1.47 ± 0.35	2.25 ± 0.16
G128A L129M	0.0617 ± 0.0017	0.0701 ± 0.0044	0.257 ± 0.034
N83S R111D	0.0636 ± 0.0039	0.0665 ± 0.0026	0.0759 ± 0.00097
L100V G128I	0.0908 ± 0.0036	0.322 ± 0.035	1.24 ± 0.03
P61N I90L K104G	0.0641 ± 0.0019	0.0616 ± 0.0054	0.119 ± 0.012
D64K C79L	0.0594 ± 0.00097	0.05925 ± 0.00021	0.0572 ± 0.00064
M60L D64K G128T D135A	0.874 ± 0.016	1.32 ± 0.071	2.33 ± 0.27
E112I D135A	0.063 ± 0.0023	0.06438 ± 0.00042	0.176 ± 0.0035
G128L D135A	0.075 ± 0.0011	0.155 ± 0.011	0.981 ± 0.14
M60L P61N D64K L107C G128M	2.5 ± 0.028	2.54 ± 0.22	2.51 ± 0.45
N83T I97G	0.06365 ± 0.00056	0.0646 ± 0.0051	0.0965 ± 0.0021
N83T I97C	0.0623 ± 0.0016	0.063 ± 0.0038	0.109 ± 0.0073
R33C K104V	0.06255 ± 0.00056	0.0618 ± 0.0011	0.0646 ± 0.0015
P30A V46R	0.0618 ± 0.0011	0.0716 ± 0.0014	0.298 ± 0.024
P61N E94C	0.0858 ± 0.0022	0.186 ± 0.015	0.781 ± 0.13
N83Y K104V	0.0651 ± 0.0031	0.119 ± 0.024	0.0894 ± 0.0065
E94F K104V G128H	0.0634 ± 0.002	0.0647 ± 0.0031	0.0833 ± 0.0084
N83T D131S P143A	0.059 ± 0.0033	0.0792 ± 0.0071	0.156 ± 0.017
E112I D131C	0.06499 ± 0.00042	0.0652 ± 0.002	0.083 ± 0.0019
L107C E109H	0.16 ± 0.0068	0.673 ± 0.092	1.68 ± 0.14

Variant	sfGFP reporter fluorescence [1]	sfGFP reporter fluorescence ([2]; ligand: 1 µM Pb)	sfGFP reporter fluorescence ([2]; ligand: 30 µM Zn)
E109L D135R	0.0677 ± 0.0015	0.0959 ± 0.0042	0.406 ± 0.061
P61D D64K D135A	0.15 ± 0.0062	0.321 ± 0.036	1.12 ± 0.11
P61D D64K L107C	1.58 ± 0.082	1.54 ± 0.35	2.2 ± 0.1
L62I R111L	0.0639 ± 0.002	0.0671 ± 0.0036	0.143 ± 0.0089
P61N P143L	0.0754 ± 0.0012	0.151 ± 0.0086	0.804 ± 0.13
M60L D135A	0.0914 ± 0.0019	0.258 ± 0.02	1.4 ± 0.16
D135A P143Y	0.0639 ± 0.0033	0.0797 ± 0.0033	0.361 ± 0.028
D135A P143W	0.0683 ± 0.0014	0.0809 ± 0.0017	0.372 ± 0.0075
D135A P143A	0.0645 ± 0.0011	0.0761 ± 0.0051	0.423 ± 0.016
D135A P143T	0.063 ± 0.0013	0.07562 ± 0.00042	0.374 ± 0.028
V108L R111L	0.0611 ± 0.00085	0.0617 ± 0.0045	0.114 ± 0.0047
E109L G128H P143L	0.0639 ± 0.00092	0.0852 ± 0.0089	0.204 ± 0.018
P61D D64K L107C G128M	1.99 ± 0.49	2.06 ± 0.23	2.38 ± 0.037
D131A D135P P143W	0.0718 ± 0.0029	0.122 ± 0.0042	0.497 ± 0.081
D131H P143Y	0.064 ± 0.0022	0.0797 ± 0.012	0.383 ± 0.0077
I97S G128I	0.0694 ± 0.0013	0.136 ± 0.023	0.89 ± 0.023
L58F K104V	0.0645 ± 0.00097	0.0808 ± 0.00092	0.182 ± 0.024
V108R P143M	0.0636 ± 0.002	0.0724 ± 0.0057	0.376 ± 0.019
L100I	0.0611 ± 0.0014	0.0649 ± 0.0013	0.216 ± 0.019
N83T I90S	0.0629 ± 0.0014	0.0715 ± 0.0022	0.109 ± 0.0024
P61N D135A	0.0764 ± 0.0016	0.152 ± 0.014	0.791 ± 0.096
M60L D64K E81A R111A	0.488 ± 0.013	1.37 ± 0.17	2.16 ± 0.59

Variant	sfGFP reporter fluorescence [1]	sfGFP reporter fluorescence ([2]; ligand: 1 µM Pb)	sfGFP reporter fluorescence ([2]; ligand: 30 µM Zn)
G128I C134E	0.0745 ± 0.0014	0.139 ± 0.0047	1.38 ± 0.067
M60L D64K G128T D131C	0.754 ± 0.023	1.8 ± 0.19	2.25 ± 0.44
I90L G128T D135A	0.0632 ± 0.00092	0.0679 ± 0.0048	0.266 ± 0.031
N83T D135V	0.0628 ± 0.0024	0.0727 ± 0.0031	0.184 ± 0.011
I90L D131C	0.0627 ± 0.00064	0.0647 ± 0.0038	0.122 ± 0.0066
C55V K104V	0.0621 ± 0.00092	0.0644 ± 0.0017	0.107 ± 0.0044
P61N E112V	0.0641 ± 0.0026	0.0906 ± 0.0036	0.387 ± 0.058
L126I D135A	0.0632 ± 0.0024	0.064 ± 0.0037	0.152 ± 0.0059
L58F P61N	0.0663 ± 0.0015	0.0952 ± 0.0084	0.219 ± 0.02
P61N D64K K104V L107C G128I	0.427 ± 0.0081	0.961 ± 0.14	1.77 ± 0.27
P61N D64K K104V L107C G128M	0.854 ± 0.022	1.37 ± 0.39	2.24 ± 0.098
P61D D64K E112H	0.156 ± 0.0048	0.345 ± 0.087	1.36 ± 0.14
M60L D64K K104V L107C G128I	1.95 ± 0.25	2.02 ± 0.3	2.61 ± 0.17
D131T V133P	0.0641 ± 0.0013	0.0767 ± 0.0042	0.395 ± 0.036
M60L D64T L107C	0.71 ± 0.032	0.754 ± 0.061	2.46 ± 0.078
N83I H89C	0.0654 ± 0.0027	0.0645 ± 0.0035	0.0687 ± 0.0029
D64T D135R	0.137 ± 0.008	0.29 ± 0.041	1.76 ± 0.28
D64T D135A	0.13 ± 0.0033	0.23 ± 0.0095	1.63 ± 0.1
D64T K104T	0.207 ± 0.0096	0.472 ± 0.087	1.83 ± 0.16
N83T E112L	0.0619 ± 0.0034	0.0766 ± 0.0039	0.125 ± 0.0069
N83T E112H	0.0643 ± 0.0027	0.0795 ± 0.0037	0.112 ± 0.0026
N83S D131A D135A	0.0661 ± 0.0022	0.082 ± 0.01	0.275 ± 0.028
